Experimental data reported in US9084734B2, “Peptide personal care compositions and methods for their use” (Danisco US Inc., priority 2005, dated 2015).
Blank lines part the entries; values can stand above or below the molecule they belong to. Bridge positions count the residues as written; N and C are the ends. Peptide text beside a SMILES is read from it.

Key:
Human VEGF165 [1] = biological target: T1, Human VEGF165 (Homo sapiens, UniProt P15692); experiment: BIAcore binding analysis of VEGF-binding peptides (surface plasmon resonance); conditions: 1:1 Langmuir binding; 1000 RU VEGF, 850 RU TNFα
T1 construct: purchased Biosource
T1 sequence (P15692 27-191 isoform P15692-4): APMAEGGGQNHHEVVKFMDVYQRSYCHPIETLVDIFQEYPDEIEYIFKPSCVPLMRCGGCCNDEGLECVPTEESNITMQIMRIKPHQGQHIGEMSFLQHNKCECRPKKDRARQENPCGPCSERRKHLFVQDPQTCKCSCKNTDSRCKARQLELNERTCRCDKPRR
Procedure: FIG. 3 provides results of a BIACORE binding analysis of VEGF binding peptides. Binding curves were obtained as described in the Examples. Data were fit to a two state reaction model with conformation change: Analyte (A) binds to ligand (B) to form complex AB.
In this Example, experiments conducted to assess the affinities of the peptides for VEGF are described. Affinities of the peptides for VEGF were measured using a BIAcore™-3000 surface plasmon resonance system (Biacore). A CM5 sensor chip was conditioned with 50 mM NaOH, 0.1% HCl, 0.1% SDS, and 0.08% H3PO4, and activated for covalent coupling of VEGF using N-ethyl-N′-(3-dimethylaminopropyl)-carbodiimide hydrochloride (EDC) and N-hydroxysuccinimide (NHS) according to the supplier's instructions (Biacore). Human VEGF165 (Biosource) was diluted to 5 μg/ml in 20 mM sodium acetate, pH 4.8 and injected at a flow rate of 2 μl/min to achieve approximately 1000 to 6000 response units (RU) of coupled protein. TNF-alpha (human TNF-alpha, Biosource, Int., Camarillo, Calif.) was similarly coupled to the CM5 sensor chip to approximately 850 to 3500 RU in the reference lane. A solution of 1 M ethanolamine was injected as a blocking agent. In some experiments, an additional solution of EDC and NHS were injected to improve baseline stability and a solution of 1 M ethanolamine injected as a blocking agent. The reference lane was activated with EDC and NHS and blocked with ethanolamine.
Peptides were synthesized using standard FMOC chemistry, purified by reverse phase HPLC to >95% purity (SynPep), and stored at 10 mg/mL in DMSO. For kinetic measurements, twofold serial diluted peptides in HBS-EP buffer, 0.01 M HEPES pH 7.4, 0.15 M NaCl, 3 mM EDTA, 0.005% Surfactant P20 (Biacore), were injected at 25° C. at a flow rate of 20 μL/min. Two-fold serial diluted DMSO samples and buffer samples were also injected for background subtraction. Kinetic parameters were calculated using BIAevaluation 3.1 software.

VegF = biological target: T2, VegF (Homo sapiens, UniProt P15692); experiment: Electrochemiluminescence (BioVeris) competition with Anti-VegF antibody for binding to VegF; conditions: ECL labeled Anti-VegF antibody, biotinylated VegF; for competition with Anti-VegF antibody for binding to VegF: 2 h room temperature
T2 construct: purchased PeproTech
T2 sequence (P15692 27-191 isoform P15692-4): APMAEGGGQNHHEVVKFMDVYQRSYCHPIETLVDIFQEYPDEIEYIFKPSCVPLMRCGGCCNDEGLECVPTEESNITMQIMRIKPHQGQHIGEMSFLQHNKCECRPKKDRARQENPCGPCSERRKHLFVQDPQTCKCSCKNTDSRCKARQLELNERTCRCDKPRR
Procedure: FIG. 19 provides a graph showing results from a competition analysis of 2BBlck81 versus anti-VegF antibody binding to VegF.
Briefly, after cleavage, the pH of the cleaved sample was adjusted to 5.5, the sample was then loaded onto the column (equilibrated with 25 mM MES pH 5.5). The free 2BBIck81 was washed through the column using 25 mM sodium acetate pH 5.0 while the BCE103 catalytic core remained bound to the resin. The 2BBIck81 fraction was concentrated by ultrafiltration and analyzed using an electrochemiluminescence (ECL) based binding assay (BioVeris). The Anti-VegF antibody (Santa Cruz) and VegF (PeproTech) were labeled with the electrochemiluminescent dye and biotin, respectively, as described by the manufacturer (BioVeris). All materials were in Dulbecco's PBS (Mediatech) supplemented with 0.1% TWEEN®-80. An initial dilution series of Anti-VegF antibody (125, 250 and 500 ng/ml) and VegF (100, 150, 200 and 250 ng/ml) were tested in the binding assay to determine the concentrations of each that would give a robust ECL signal.
For testing 2BBIck81 binding, 50 μL of 500 ng/ml ECL labeled Anti-VegF antibody, 50 μL of 250 ng/ml biotinylated VegF and 100 μL 2BBIck81 (series of 12.5, 15, 31.25, 62.5, 125, 250 or 500 ng/ml) were incubated at room temperature for 2 h with shaking. Then, 50 μL of 0.2 mg/ml streptavidin coated beads were added and the reaction was incubated at room temperature for 30 minutes. The ECL signal was measured using a BioVeris M8/384 Analyzer as described by the manufacturer (BioVeris).

Human VEGF165 [2] = biological target: T1, Human VEGF165; experiment: BIAcore binding analysis of BBI-VEGF; conditions: refolded protein, trypsin and chymotrypsin coupled in remaining lanes
Procedure: In this Example, experiments conducted to determine the binding affinity of constructs produced as indicated in Example 9 are described. Affinities of BBI-VEGF constructs for VEGF were measured using BIAcore-3000 surface plasmon resonance (Biacore). A CM5 sensor chip was conditioned with 50 mM NaOH and activated for covalent coupling of VEGF using N-ethyl-N′-(3-dimethylaminopropyl)-carbodiimide hydrochloride (EDC) and N-hydroxysuccinimide (NHS) according to the supplier's instructions (Biacore). VEGF (human VEGF165, Biosource) was diluted to 5 μg/mL in 20 mM sodium acetate, pH 4.8, and injected at a flow rate of 2 μL/min to achieve approximately 1000 to 6000 response units (RU) of coupled protein. Trypsin and chymotrypsin were similarly coupled to the CM5 sensor chip to approximately 850 to 3500 RU in remaining lanes. A solution of 1M ethanolamine was injected as a blocking agent.

[3] = system: skin of individuals of skin type III and IV; experiment: Reduction of skin pigmentation induced by UVA exposure (MPPD), clinical tanning grade; format: in vivo, human; conditions: for Day 13 Avg. Tanning Grade / Day 14 Avg. Tanning Grade / Day 15 Avg. Tanning Grade: 1.0 MPPD UVA daily on days 12-14, 0-10 scale; for Change on Day 13 (tanning grade minus day 12 grade) / Change on Day 14 (tanning grade minus day 12 grade) / Change on Day 15 (tanning grade minus day 12 grade): UVA-induced pigmentation; for Day 12 Avg. Tanning Grade: after 11 days of patches, before UVA exposure, 0-10 scale
Procedure: In this Example, experiments conducted to test the ability of BBI-AV to reduce skin pigmentation induced by UVA exposure are described. This study was conducted with 13 individuals of skin type III and IV based on The Fitzpatrick skin classification. On day one, each subject's minimal persistent pigment darkening dose (MPPD) was determined on the lower back of each individual, in an area that is equal in color to the area that received test material application. […] Subjects returned to the clinic 34 hours after the MPPD exposures were complete. The test sites were scored for pigment darkening using the following scale: • - no visible pigment darkening • ? questionable response; unclear • + slight darkening over essentially the whole irradiation field • ++ definite darkening over the whole irradiation field The site treated with the lowest dose of UVA producing a score of ‘+’ represented that subject's MPPD. On day two, sites of uniform color were marked on the lower back. The clinical grader assessed the degree of tan at each site using a 0-10 scale (0=very slight tan and 10=very deep tanning.) Then the Test material (0.1% and 0.9% of BBI-AV) and the vehicle control applied under occlusion. A volume of 150 μl was dosed onto each patch. The occlusive patches used hte these experiments were the same as described in Example 2. As described in Example 2, the patches remained in place until the next day, when a clinician removed them. This patching procedure was repeated for 11 days. On the days 12-14, the clinician removed the patches that were applied the previous day and the site was gently wiped to remove residual test material. The clinical grader assessed the degree of tan at each site using a 0-10 scale (0=no tan and 10=very deep tanning.) After grading was complete, each site was exposed to 1.0 MPPD of UVA as described for Day 1. New patches were applied after exposures were completed. On day 15, patches were removed and the degree of tan at each site was assessed using a 0-10 scale (0=no tan and 10=very deep tanning). […] In this table, the tanning grade results are shown as the results obtained for day 12 subtracted from grades of days 13, 14 and 15.

[4] = system: skin of subjects with Fitzpatrick skin types III or IV; experiment: Skin lightening study, occlusive patches on lower back, clinical tanning grade; format: in vivo, human
Procedure: In this Example, experiments conducted to assess the skin lightening capabilities of BBI-AV are described. Thirteen subjects, ages 18-65, with Fitzpatrick skin types III or IV participated in this 22-day study. The Fitzpatrick skin classification is based on the skin's unprotected response to the first 30 to 45 minutes of sun exposure following a winter season without sun exposure. The categories of skin types are:
Five test sites of uniform color were marked on the lower back of each subject. The clinical grader assessed the degree of tan at each site using a 0-10 scale (0=very slight tan and 10=very deep tanning.). Each subject was pre-treated with one concentration of Molecule A, two concentrations of Molecule B, vehicle control buffer, and an untreated site for 11 consecutive days. Approximately 150 uL of test materials (0.1% and 0.9% of BBI-AV) and vehicle control were dosed onto the lower back using occlusive patches. Occlusive patches consisted of a Webril® (non-woven cotton) pad held to the skin with a porous, hypoallergenic tape (e.g., SCANPORE® or MICROPORE®). A strip of BLENDERM® tape equal in width of the cotton pad covered the outside of the tape to provide the occlusive patch. Patches remained in place until a clinician removed them the next day. This patching procedure was repeated for 11 days.
On day 12, the clinician removed the patches that were applied the previous day and the site was gently wiped to remove residual test material. The clinical grader assessed the degree of tan at each site using a […].

- Kd (Human VEGF165 [1]): 223 nM
- kd1 (Human VEGF165 [1]): 0.167 s⁻¹
Molecule: CC[C@H](C)[C@@H]1NC(=O)[C@H](CC(=O)O)NC(=O)[C@@H](NC(=O)[C@H](CC(N)=O)NC(=O)[C@@H]2CCCN2C(=O)[C@H](CCC(=O)O)NC(=O)[C@@H](N)C(C)C)CSSC[C@@H](C(=O)N[C@@H](Cc2ccccc2)C(=O)N[C@@H](CCC(=O)O)C(=O)N[C@@H](CCCNC(=N)N)C(=O)N[C@@H](CC(C)C)C(N)=O)NC(=O)[C@H](CCC(=O)O)NC(=O)[C@H](Cc2c[nH]c3ccccc23)NC(=O)[C@H](CCC(=O)O)NC(=O)[C@H](Cc2c[nH]c3ccccc23)NC(=O)[C@H](CCSC)NC(=O)[C@H](C(C)C)NC(=O)[C@H](Cc2c[nH]cn2)NC1=O [v114, reference compound] (H-VEPNCDIHVMWEWECFERL-NH2; disulfide 5-15; N-terminus and C-terminus assumed)

B1: 1BBIck81: BBI with the grafted CK37281 peptide in the trypsin loop (protein)
chain: DDESSKPCCDQCACYNLYGWTCRCSDMRLNSCHSACKSCICALSYPAQCFCVDITDFCYEPCKPSEDDKEN
- competition with Anti-VegF antibody for binding to VegF (VegF): also competed with the Anti-VegF antibody

- specific/selective binding to VEGF (Human VEGF165 [2]): binds specifically to VEGF
- specific/selective binding to VEGF (Human VEGF165 [2]; listed as BBI-VEGF): Selective binding affinity to VEGF
B2: BBI-VEGF1: BBI-VEGF fusion (SEQ ID NO:22) with only one of the binding loops replaced (protein)
chain: DDESSKPCCDQCACYNLYGWTCRCSDMRLNSCHSACKSCICALSYPAQCFCVDLTDFCEPCKPSEDDKEN
modifications: synthetic fusion peptide

B3: BBI-AV: BBI sequences having anti-VEGF (AV) sequences incorporated; primary active of the personal care compositions (protein)
chain: DDESSKPCCDQCACYNLYGWTCRCSDMRLNSCHSACKSCICALSYPAQCFCVDLTDFCEPCKPSEDDKEN
- Day 13 Avg. Tanning Grade ([3]; 0.1% BBI-AV): 5.08
- Day 14 Avg. Tanning Grade ([3]; 0.1% BBI-AV): 5.13
- Day 15 Avg. Tanning Grade ([3]; 0.1% BBI-AV): 5.5
- Change on Day 13 (tanning grade minus day 12 grade) ([3]; 0.1% BBI-AV): 0.32
- Change on Day 14 (tanning grade minus day 12 grade) ([3]; 0.1% BBI-AV): 0.37
- Change on Day 15 (tanning grade minus day 12 grade) ([3]; 0.1% BBI-AV): 0.74
- Day 12 Avg. Tanning Grade ([3]; 0.1% BBI-AV): 4.76
- UVA induced pigmentation ([3]; 0.1% and 0.9% of BBI-AV under occlusion, 1.0 MPPD of UVA on days 12-14): UVA induced pigmentation is decreased
- Day 13 Avg. Tanning Grade ([3]; 0.9% BBI-AV): 4.92
- Day 14 Avg. Tanning Grade ([3]; 0.9% BBI-AV): 5.04
- Day 15 Avg. Tanning Grade ([3]; 0.9% BBI-AV): 5.5
- Change on Day 13 (tanning grade minus day 12 grade) ([3]; 0.9% BBI-AV): 0.23
- Change on Day 14 (tanning grade minus day 12 grade) ([3]; 0.9% BBI-AV): 0.35
- Change on Day 15 (tanning grade minus day 12 grade) ([3]; 0.9% BBI-AV): 0.81
- Day 12 Avg. Tanning Grade ([3]; 0.9% BBI-AV): 4.69
- change in tanning grade versus vehicle control ([4]; 0.1% and 0.9% of BBI-AV, 150 uL under occlusive patches for 11 days, graded day 12): greater change in the tanning grade
- Change in Average Tanning Grade ([4]; 0.9% BBI-AV, Day 11 versus Day 1): −0.27
- Average Day 1 Tanning Grade ([4]; 0.9% BBI-AV, occlusive patch on lower back, baseline before treatment, clinical grader scale): 4.96
- Average Day 11 Tanning Grade ([4]; 0.9% BBI-AV, occlusive patches for 11 consecutive days, clinical grader scale): 4.69

B4: 2BBIck81: BBI with the grafted CK37281 peptide in the chymotrypsin loop (protein)
chain: DDESSKPCCDQCACTKSNPPQCRCSDMRLNSCHSACKSCACYNLYGWTCFCVDITDFCYEPCKPSEDDKEN
- competition for VegF binding compared with synthesized CK37281 peptide (VegF): competed for VegF binding better than the synthesized CK37281 peptide itself
- competition with Anti-VegF antibody for binding to VegF (VegF): competed with the Anti-VegF antibody for binding to VegF at micromolar concentrations
